In test [1] the target is T1, human sodium-dependent phosphate transporter 2B (NaPi2b) (human, UniProt O95436 1-690).
T1 construct: also called hNaPi2b; Hu NaPi2b
T1 sequence: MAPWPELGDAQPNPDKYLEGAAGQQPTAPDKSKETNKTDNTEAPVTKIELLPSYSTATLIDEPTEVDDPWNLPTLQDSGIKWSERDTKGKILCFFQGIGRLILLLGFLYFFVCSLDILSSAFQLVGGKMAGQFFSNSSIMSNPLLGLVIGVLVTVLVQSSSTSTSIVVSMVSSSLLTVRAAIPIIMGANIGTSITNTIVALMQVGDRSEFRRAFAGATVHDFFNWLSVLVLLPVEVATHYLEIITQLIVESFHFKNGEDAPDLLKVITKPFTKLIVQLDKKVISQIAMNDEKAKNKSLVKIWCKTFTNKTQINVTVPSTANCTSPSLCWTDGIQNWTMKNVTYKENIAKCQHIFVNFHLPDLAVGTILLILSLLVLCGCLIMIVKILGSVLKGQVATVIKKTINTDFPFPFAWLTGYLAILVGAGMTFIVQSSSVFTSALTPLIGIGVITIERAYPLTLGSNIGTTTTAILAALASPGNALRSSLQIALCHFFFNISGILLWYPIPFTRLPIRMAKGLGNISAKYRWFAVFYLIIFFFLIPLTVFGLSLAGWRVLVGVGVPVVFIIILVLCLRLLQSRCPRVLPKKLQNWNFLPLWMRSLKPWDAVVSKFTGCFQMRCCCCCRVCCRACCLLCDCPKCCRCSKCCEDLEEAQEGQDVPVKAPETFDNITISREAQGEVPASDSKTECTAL
Briefly: KinExA, IGROV-1 cells, monovalent format. A general note: Kinetic exclusion samples the free partner from a solution-phase mixture.
Experimental: The cell-binding assay was set up using the antibody constructs or variants as constant binding partner at two different concentrations of 50 μM and 500 μM. For the titration curve with antibody variants fixed at 50 μM, at least 10 million IGROV-1 cells were used as titrant. For the titration curve with antibody variants fixed at 500 μM, at least 5 million cells were used as titrant. The antibody variants and cells were mixed in PBS pH 7.4, 1 mg/mL BSA, 0.2% NaN₃ and incubated at 4° C. for 7 days with gentle rotation until equilibrium was reached. After incubation, the mixture of antibody variants and cells was centrifuged to separate the cells from the unbound free antibody variants.
N-curve analysis was used to calculate the affinity and receptor expression level with the concentrations of antibody variant as reference point.

Test [2] has as its target T1, human sodium-dependent phosphate …. Briefly: flow cytometry, IGROV-1, HCC-78 and H441 cells.
The target is the same in test [3]. Put plainly: flow cytometry on IGROV-1 cells (endogenous NaPi2b), 24 h at 4 C, anti-human IgG Fc AF647, APC-A GeoMean.
Experimental: Briefly, cells were seeded at 50,000 cells/well in conical-bottom 96-well plates and treated with test antibody for 24 hours at 4° C. to prevent internalization. […] Following incubation and washing, fluorescence was detected by flow cytometry on a BD LSRFortessa™ Cell Analyzer (BD Biosciences, Franklin Lake, NJ) with 1,000 minimum events collected per well.
Test [4] has as its target T2, human sodium-dependent phosphate transporter 2B (NaPi2b) (human, UniProt O95436 1-690).
T2 construct: Multi-pass membrane transporter; It stood on HEK293-6e cells transfected with pTT5-huNaPi2b, or endogenously on the tumour cell lines IGROV-1, OVCAR-3, HCC-78, TOV-21G and NCI-H441; also called Hu NaPi2b; hNaPi2b
T2 sequence: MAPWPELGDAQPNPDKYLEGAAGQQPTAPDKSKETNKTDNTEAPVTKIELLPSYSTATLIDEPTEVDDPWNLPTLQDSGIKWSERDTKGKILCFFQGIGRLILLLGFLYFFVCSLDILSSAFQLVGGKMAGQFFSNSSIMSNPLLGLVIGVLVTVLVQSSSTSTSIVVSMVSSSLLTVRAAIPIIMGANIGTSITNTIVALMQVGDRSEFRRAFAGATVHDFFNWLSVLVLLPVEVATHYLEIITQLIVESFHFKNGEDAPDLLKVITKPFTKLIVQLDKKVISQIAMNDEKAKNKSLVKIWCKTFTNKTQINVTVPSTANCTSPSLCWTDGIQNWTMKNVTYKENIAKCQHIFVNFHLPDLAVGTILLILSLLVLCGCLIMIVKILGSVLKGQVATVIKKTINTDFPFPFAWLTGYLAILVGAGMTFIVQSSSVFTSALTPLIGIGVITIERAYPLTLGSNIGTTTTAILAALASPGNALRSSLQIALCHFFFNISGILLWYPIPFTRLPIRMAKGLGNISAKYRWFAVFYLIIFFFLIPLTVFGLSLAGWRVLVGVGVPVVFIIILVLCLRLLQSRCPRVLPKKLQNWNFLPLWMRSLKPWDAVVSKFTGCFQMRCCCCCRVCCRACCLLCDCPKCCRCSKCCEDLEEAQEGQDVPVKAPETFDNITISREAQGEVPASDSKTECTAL
Briefly: flow cytometry on HEK293-6e cells transfected with human NaPi2b. Background: In flow cytometry, cells or beads pass a laser one at a time.
Experimental: Following transfection, cells were seeded at 50,000 cells/well in conical-bottom 96-well plates and treated with test antibody or antibody-drug conjugate for 24 hours at 4° C. to prevent internalization. […] Following incubation and washing, fluorescence was detected by flow cytometry on a BD LSRFortessa™ Cell Analyzer (BD Biosciences, Franklin Lake, NJ) with 1,000 minimum events collected per well.

Here are results for four molecules from US20250235548A1 (Zymeworks, published 2025).

The term EC50 (read off the curve) denotes the concentration giving half of the maximal effect. A low value points to higher potency in that assay.

B1: v36124, monovalent format of humanized antibody variant 29456 (antibody, V domains shown)
VH: QVQLVQSGAEVKKPGASVKVSCKASGFTFTSYNVHWVRQAPGQGLEWMGAISPGNGDLSYAQKFQGRVTMTRDTSTSTVYMELSSLRSEDTAVYYCARGRTGMGAVDYWGQGTLVTVSS
VL: DVQMTQSPSSLSASVGDRVTITCRASQDVYSYLNWYQQKPGKAVKLLIYYTSRLQSGVPSRFSGSGSGTDYTLTISSLQPEDFATYYCQQYNIFPWTFGQGTKLEIK
notes: also called VH1/VL2
As for B1, in test [1], the “fold lower binding affinity than chimeric parental antibody construct” value was roughly 2 fold.

B2: v21995 (palivizumab), anti-RSV negative control antibody (antibody, human IgG1, kappa, V domains shown)
VH: QVTLRESGPALVKPTQTLTLTCTFSGFSLSTSGMSVGWIRQPPGKALEWLADIWWDDKKDYNPSLKSRLTISKDTSKNQVVLKVTNMDPADTATYYCARSMITNWYFDVWGAGTTVTVSS
VL: DIQMTQSPSTLSASVGDRVTITCKSQLSVGYMHWYQQKPGKAPKLLIYDTSKLASGVPSRFSGSGSGTEFTLTISSLQPDDFATYYCFQGSGYPFTFGGGTKLEIKR
As to B2, the binding result in test [2] is given as “no binding”.

B3: v18992 (MX35)-DL2 antibody-drug conjugate (antibody, human IgG1, kappa)
heavy 1: GQVQLVQSGAEVVKPGASVKMSCKASGYTFTGYNIHWVKQAPGQGLEWIGAIYPGNGDTSYKQKFRGRATLTADTSTSTVYMELSSLRSEDSAVYYCARGETARATFAYWGQGTLVTVSSASTKGPSVFPLAPSSKSTSGGTAALGCLVKDYFPEPVTVSWNSGALTSGVHTFPAVLQSSGLYSLSSVVTVPSSSLGTQTYICNVNHKPSNTKVDKKVEPKSCDKTHTCPPCPAPELLGGPSVFLFPPKPKDTLMISRTPEVTCVVVDVSHEDPEVKFNWYVDGVEVHNAKTKPREEQYNSTYRVVSVLTVLHQDWLNGKEYKCKVSNKALPAPIEKTISKAKGQPREPQVYVYPPSRDELTKNQVSLTCLVKGFYPSDIAVEWESNGQPENNYKTTPPVLDSDGSFALVSKLTVDKSRWQQGNVFSCSVMHEALHNHYTQKSLSLSPG
heavy 2: not shown
light: GDIQMTQSPSSLSASVGDRVTITCSASQDIGNFLNWYQQKPGKTVKVLIYYTSSLYSGVPSRFSGSGSGTDYTLTISSLQPEDFATYYCQQYSKLPLTFGQGTKLELKRTVAAPSVFIFPPSDEQLKSGTASVVCLLNNFYPREAKVQWKVDNALQSGNSQESVTEQDSKDSTYSLSSTLTLSKADYEKHKVYACEVTHQGLSSPVTKSFNRGEC
modifications: maleimide functionalized auristatin drug linker (DL2); sites and DAR not stated
notes: also called MX35-DL2 ADC
Turning to B3, in test [3], the “EC50 (read off the curve)” value was roughly 1 nM.

B4: humanized anti-NaPi2b antibody variant v38591 (antibody, human IgG1, kappa)
heavy: not shown
light: DVQMTQSPSSLSASVGDRVTITCRASQDVYSYLNWYQQKPGKAVKLLIYYTSRLQSGVPSRFSGSGSGTDYTLTISSLQPEDFATYYCQQYNIFPWTFGQGTKLEIKRTVAAPSVFIFPPSDEQLKSGTASVVCLLNNFYPREAKVQWKVDNALQSGNSQESVTEQDSKDSTYSLSSTLTLSKADYEKHKVYACEVTHQGLSSPVTKSFNRGEC
notes: Human IgG1/kappa full-size antibody; It is identical to v29456 except that the heavy chains include a C-terminal lysine; also called v38591 (H1L2)
Regarding B4, in test [4], the Bmax stood at 65.
